Data as given in the domain aggregation screens of Martell et al. (2025).

Assay: soluble fraction after stress (log2 fold change); higher = more stays soluble; pooled small domains, quantitative proteomics
Details: stress: pH 4
Outline: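 Custom libraries of small protein domains were pooled and exposed to pH 4. High-throughput quantitative proteomics then measured the log2 fold change in the amount of each domain still soluble, with higher values meaning more stayed soluble. This soluble-fraction fold change stands for aggregation propensity.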

Sequence	soluble fraction (log2)
HMDIGTRQRIIAAAMELFRQKGMDGMSMRELAERAGVNKGLLHYYFTTKEAIFREVFVHQVEM	-0.0208
HMQFSAVVLDMETRRQVAGVAVYINPKGVVKTDMRGRFVIDGAFNSVTLVRQGYESLTLERSEMTDSIWM	-1.07
HMQVIDNHWRPSRDALDILLRDGISEHFIEDAIPEFILYWRERGTQDSNWNSRFLQHIRLQWARYTNAV	-0.936
HMTAYENSIPLNWVIQKGDAKGLPLSANTARLLIDIVGIDLMDLDHELEKISLYLSGESITEEMIKEHIRG	-1.01
HMAKSMRHLIVPSRETSLWRDKLSTNGWLSKGYGIHNLDDYRGIPLNETAPKIIEGLEITELEPIS	-0.755
HMKNESLMLPRDIDYSRVHGLSNEAIQKLQDALPQSLGQASRIEGITPATLSLLLLYLKKNNKRI	0.0199
HMTQQNRDELYRRMIDAGWDQLVRNGIRSLRVEQVAAAVGIAKGTFYHFFDSKDDFIYAMLMENRQ	-1.03
HMTDAYEVLDLNREASDEEIKKRYRELIREHHPDTLIAKGVPQEFVDLANDKMAAINAAYDRIEKDRGL	-0.0939
HMAPADLSPEERVVLDALALEPVHVDALAAKLGRRSEELLTSLTLMEMRGLAVAHAGSRYSRATMT	-0.934
HMSGENAVLTEGTMVTVRRGGETITATARKETVKQFLSRMDIIPGSREMVGIELMENSVMLTISD	-1.02
HMQFETVQDAFNHYRNASLEEIESRAAEIKGIIESDPEADVRALNIEIEGLHQAKQNILEKQKTK	-0.064
HMSGEDYLERILMLKEKHGNVRAIDIANSMNFSKPSVSIALHKLSENGYVVIQNNGAIELTEKGLEVAT	-0.0506
HMYRLSPSWRIVERDDGFEIYGGDDARFQLDPSPLVSRLAAGDAVTRDGLDPTGAIEFEQLLSAGMIRPEI	-0.829
HMPAQPEPYNNLARLYSAQGKLDQAASLLRAGLYTDPAYRALFDNLTRIYAEQAARSLSAALD	-0.879
HMLPDDDMLLNILTKLLIDKQFVINSHEIFDFIIKRANRSYEEMFILVNKLDQLSLEKKRQLTIPLIKEI	-1.22
HMLGERIRRLRKEMGMSVTELARRVKTSPSYISEIEKGEKTPSLNLLVRIASELRTGIDYLTGL	-0.00698
HMTNVETLVRMRLRSIRTTLGYSLDEIAERSNLSASTVSRIETGKRALSIDVLVPLAAALQVSVDDLLRAE	-1.31
HMVQQAVNMAKPGKLFTGPSPTSKALRDLDAGAMLYPTGEKQGPFWKVQDELGNEGWVAMGLLQLA	-0.0346
HMKPTGWVRGDMGVVDKGQLSITQGTVNVRSGPGLSYEILDQVRRGDRFPVIKSQSGWHNISM	0.361
HMSEKYPPIDWNNIKTGQSVLIKDINQVVSLTKLPDSKGFAEVQMGLIKTKIKAEKLAATDKKPNK	-0.0179
HMGHTKLVVDIVEELKLEQGALLPILHAIQDELGYVPTKSVPFIADSLNLSRAEVHGVISFYHYFR	-0.741
HMFDDEELDRFAGVPADAYLPADEDEFREVFYTMRPGEVVEWVRSLELRHIEIPNGIKDEIFMMIR	-3.37
HMADIGRMKELIDILNRASAVYYQGKDEIMSNFEYDKLYDELVSLEKESGLVLAGSPTQKVGY	-0.0716
HMLEPGIAVLKTLMSQYRLGVADLPELGSKSNVSKLLNAVEGKKLTRQHIEALSKRFAVSPALF	0.114
HMEARNDWAQQSRADAEFGGEKLDENLAVAKKAVEALASPELKTLLEQSGLGNHPEIIRLFYRAGRSLS	-0.122

Sequence	soluble fraction (log2)
HMTPLFNQGEVLKGFVLQTGTNNRVLLQIGTAKVLADAQTPLKAGEQLTLRVEATGPRTVLQILG	0.101
HMNEISFYPNPAKESLTVKGLSEITSYSISDINGKLIQYGTTFDRINLEKLTKGFYFLTIGNTISKKLIV	-0.0595
HMIPRNLEDLVRENQIGLVILKIVEIIGEDNIRDLDPETIYFINRILNELNLKKIRNNILSEALPPR	-0.8
HMTVTKYGKKILEIVSSSRSHMTAEEIFDALRQTYPTVVLATVYNNLNRLWQDDLIRKVSVEGMPDRYD	-0.0435
HMDEYILTLDEVKELLKSKDYDDLKNVLKWSNKFQKDTIIQTAISEKVSDANVINIIKEITGQDITSLIV	-1.12
HMNATLSSSYPTSVVTDGEIYKLTFGLNGKYNGQEQITVKPHGDSNIYDSGGLRAYQNTQSNNVVTLN	-0.254
HMTGIELLSHREHQVYDLLTQGRTVTEIGAQLNLAPNTVSTYRARILEKTGTKNDVELALYAQRH	-0.114
HMSAGYTYQNYQQDLKSGNVQNIHIYLSEEMYSGNVKVIYKNNKSVTFTVTDVTIAEAEARQVGISPIIYE	-0.504
HMSIQQEATGNRIRELLLNNGYTVKDIQEVMGFENPQAVYKWLSGKSLPNLDNLLILSKVLHTSIEDILV	-1.09
HMTTVDYDALRAAILQQVVSEDTTPALTTENTEIKYKFKFGLDTWVDLDGGKIAPAVSAKSYEIQISFKG	0.12
HMSRAAQRLFMSQPPLSRHIRQLEDRLGVTLFVRHTRGLTLTEDGQRVLEMVRPLLDLQDKTYAALSQLT	≥ 0.43
HMGIQQNHMTLHARSVASSANVPAEHFDTLVEKLIESGDIKVWKAREILMNLSRQHEEILDES	-0.365
HMETTMVEIKAEFTIRNRLDIPAMMEKAGYKDRGEFLSVLEKITGNYNWDRDVKKGDTFMVPSKLA	-0.335
HMKKLTAEEIQEAKDILEKIQEIPNFKKIFGDDTIKALENSTKTGVLLPDNIISKIHTLMIRFGIK	-0.248
HMHGETLAAKRREEIKVRIQNIYDQSEQIFGYRKITATLRSQGVVVSEKLVSQLMRELEISSVS	-0.896
HMRYPLPYAFARSQQLLLEETDDGRYTLWMSSHPARSAVGEVSRKYGVQTFEVLADGPLAQRISAAYAQ	0.0965
HMDSMATVPDLVGKTEDEAKALANDAHLGVQMAGEEASDQEKGKISRQETAAGTQVAEYTTVKYWVSTGTQ	0.154
HMTMVLPDAARDKLKAIGLSIEHVEPSPVKDIFTVISREGVSYVSKDGDYIFTGSLFHVKGKDVVNTTEQA	-0.275
HMTNELVNVNKLLDVMEPSIPLTALEIMTRLGIKSKETLRNSYLNPAIKLGMINLTSPLKPTSKNQMYYK	0.111
HMLVGKSVIMKTNESSSGMIAGKVNYWENIDGKIYLGINGKLYDIADVDTVLDNDYYDKLVN	-1.14
HMDFSVTIKGTSFPVMVSLKKMKQVRLKVFPSGEIKLSAPVGTPEKWIVEYLNDKMSWIEEKMDLFVQ	-0.395
HMITPKQTAETLGIATSTLRRWASEFEPFLSLRTGVKRTYTTDDITTLKRVKDLFAQGLKTEQVREAL	≥ 0.43
HMTAKRELILRVFMDSNGKLLSIDDVFMEMRKKRSHRTSKMTVKRAIDLLVDLGLLKEVLFDDDNIKYEYV	-0.105
HMSSVEQAILETLSKEHSHLTSLQVFEEIRGRLPAVNQSTVYRALERLVEQGVVSVSDMGTHAAVYE	0.119
HMARGLRPVPSVFGLDVRQATRTLYAAGFQVSIARGSDVRTRPAAGTLLRVGSTVQLEMPRMESA	-0.000244

Sequence	soluble fraction (log2)
HMDAVLMEYDRLLALELTEDPDVYQDLLDKVREQSLGADGRVTDKYREKFDAVATRFDDYEDNYQW	-0.62
HMEAQFIDINDVRIGTYVYVDLGWIKHPFALNSFKITSRDQIDTLIKLGVKRIRWSPEKSDS	-0.483
HMSAGISVADVTNRTYDEGYNTLTAQHLLVNKVYEANETIPLDTIIRTDPVAGTKVPDNTSITVYVSSGK	-0.025
HMDETPESIFAKANELYPKYIKYFYTEQEYYSKVEEYINLYEFQKNSTYILGKDLEEFLEEYITNKQ	-1.51
HMLMKKTITHEIELLEFLKQIFPQSSTNKLRKMLSNGRIKINSEIVHKAKYKLQENDTFELLDNPT	-0.0208
HMRASQGRNELILSLLRGHELSILELLEGLEKQGVRVARPTLTKDLNELVSRGSVEATAPPRSKNRTYRIP	0.302
HMEQAMIVILKENPDRRQLEFLTGWLQKQQIGIHISEGAHQTVLGLVGDATRLDIDMLKQMEIVEDVKRVQ	-0.953
HMAEPRVQEVYFEFDGKQVEAGQVVSLIEQAYKNEGHQIGRIKDLKVYINSEEGKAYYVINGDDGEGKYIE	-0.67
HMSPEVEEISIDHLKAGMRILSDLRLPNGTLVAPKGSVVDAHFIKIVENYVISYFGNPFPDRIKVIM	0.144
HMAMYYVIGGDGQQYGPIDEATVRGWLGEGRVSAASLSFKTGEAQWIPLRDRPELADVLATA	-0.311
HMKNHSTFKSVLSNIEFPINERISGHAIQNPILGLIKADHPNFSSDQYIAISELNFYREKYISNYLLTEI	-1.6
HMADENIELRKAGLKVTLPRVKILQILEAAKEPHMSAEDVYKALMEANEEVGLATVYRVLTQFESAGL	-0.232
HMTPQGALDYSRNAKYLRDQVTAINYLKQARLSLNTTDANYRQTLEQINQAIAKHNQALQQAGVQSQQLAT	0.22
HMVAMLDASYRGVMQTISTLLAQGNTERAYDEAVNARGQMSKQQWNNLANLIWERTGQKIDSGVSYK	-0.00781
HMERQILFTKEDLIEFGLSGGTDSRKRRDVLGHILGIGYSNSKQFLNRLNNFGVTREEFLSAIERIG	-0.454
HMLERKFGTSLEIKSLSKFLIENNYKKNAKYLNKLIQVLGTRSENRIIKTFFKQFPEIENIFRNQL	-0.493
HMPGDIRKAAILLMSLPREQAAQVLARLDPKQVEAVTIEIARLGTVTPDEQEQALKEFSQANPA	-0.141
HMTSSQRDSILEFLKTRKDHPTADVVYMNVRKSFPNISLGTVYRNLTLLSDIGQIAKIRVGDGVDHFDADT	-0.073
HMNTISTLEITTKKDIRILDESELLKSKSSKNNIFNYLLASGDFNLLKDKLNEIDEFSDEIISYQLN	-0.356
HMQMSDTAAIGKIVDEVFAENPAALEDYAKGKTNVVDWLTGQVMKKSRGQANPGIASELVQKRLADF	0.101
HMEEMADILKTRIDTLDLSTRTLNALTGANIRTVGGIARKKKEDLLELAGMGEKGIQEIKKVLGGFGITL	0.15
HMGDSEMPVSEVVRLAKLDQISSIEISGTKLTIITNNLETYTSRIEENSTIIEILQRAGVDIGGLEIYPHG	-0.983
HMVNAVKFAIEKMPYKYSSLLTLKYVMGYSGKEIAEITGLSETNVRQQLLKGRKLLESMLEE	-0.105
HMQVAPQVERLLRVMGNETLSLSDIMGRMGLSDKKNFRESYLVPALRSAVIEMTIPDKPNSSLQKYRRIHE	-0.125
HMPGRVITVMVNGKRVDLPFREEPYIFVDLFRYMDFDVERARGRIQLAINGKKAGYTDIIREGDSIEI	-1.02
